The values that follow are results of earlier work, collected in publication PMC11061240.

Data set [1] concerns the target FGL1 (UniProt Q08830).
Data set [2] addresses α-synuclein preformed fibrils (UniProt P37840).
The target of data set [3] is FGL1 (UniProt Q08830). In words: BLI. On the technique in general: Biolayer interferometry detects binding as a change in optical thickness at a sensor tip.

Where two headings read alike, the source gives them in different places.

UniProt Q08830, sequence (Q08830 23-312): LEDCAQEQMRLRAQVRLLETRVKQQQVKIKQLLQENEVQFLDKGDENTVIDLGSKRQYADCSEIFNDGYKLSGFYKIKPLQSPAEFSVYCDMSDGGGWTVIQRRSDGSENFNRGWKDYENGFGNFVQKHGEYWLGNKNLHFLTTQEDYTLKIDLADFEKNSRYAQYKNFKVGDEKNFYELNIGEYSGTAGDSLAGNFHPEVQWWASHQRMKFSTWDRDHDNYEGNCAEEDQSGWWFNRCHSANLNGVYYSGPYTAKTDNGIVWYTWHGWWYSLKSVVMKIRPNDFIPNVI

With LAG3 (from UniProt P18627), the Kd – broadly, the concentration at which binding is half-saturated – is 7000 nM with FGL1 [1] and 80 nM in data set [2].
LAG3 ECD (from UniProt Q61790): the Kd with FGL1 [3] is 1.5 nM.
